Experiments:
[1] = target: T1, anti-Complex I antibody (anti-HCMV antibody); experiment: anti-CI clinical PK ELISA; coat 4.25B10.15 1 ug/mL; 8G8 0.125 ug/mL; against unspiked human serum
T1 construct: also called anti-CI; anti-CI antibody
Procedure: (§1) The plates are washed three times with 400 μl per well per cycle of wash buffer. 200 μl per well of blocking buffer (PBS/0.5% BSA/0.05% polysorbate 20/0.05% ProClin 300, pH 7.4±0.1) is added, and the plates are incubated at room temperature with shaking for 1-3 hours. Standard curves are prepared with standard/sample diluent (assay diluent with 0.5% normal pooled human serum; assay diluent is composed of PBS/0.5% BSA/0.05% polysorbate-20/0.35 M NaCl/0.25% CHAPS/5mM EDTA/0.05% ProClin 300, pH 7.4±0.1). The plates are washed three times with 400 μl per well per cycle of wash buffer. Diluted standards, controls and samples are added to plates at 100 μl per well, in duplicate. The plates are incubated at room temperature with shaking for 2 hours +10 minutes. The plates arc washed four times with 400 μl per well per cycle of wash buffer. HRP conjugates diluted in conjugate buffer (PBS/0.5% BSA/0.05% polysorbate 20/0.05% ProClin 300, pH 7.4±0.1) are added at 100 μl per well. The plates are incubated at room temperature with shaking for 1 hour±5 minutes, following which the plates are washed four times with 400 μl per well per cycle of wash buffer. […] The plates are read using a 450 nm read wavelength and a 620 or 630 nm reference wavelength. […]

[2] = target: T1, anti-Complex I antibody (anti-HCMV …); experiment: anti-CI clinical PK ELISA; coat 4.25B10.15 0.75 ug/mL; 8G8 0.125 ug/mL; against unspiked human serum
Procedure: (§2) Microtiter plates are coated overnight at 2-8° C. with 100 μl per well of 0.75 μg/ml anti-CI idiotypic antibody (in 0.05 M sodium carbonate buffer, pH 9.6±0.1). The plates are washed three times with 400 μl per well per cycle of wash buffer. 200 μl per well of blocking buffer (PBS/0.5% BSA/0.05% polysorbate 20/0.05% ProClin 300, pH 7.4±0.1) is added, and the plates are incubated at room temperature with shaking for 1-3 hours. Standard curves are prepared with standard/sample diluent (assay diluent with 0.5% normal pooled human serum; assay diluent is composed of PBS/0.5% BSA/0.05% polysorbate-20/0.35 M NaCl/0.25% CHAPS/5mM EDTA/0.05% ProClin 300, pH 7.4±0.1). The plates are washed three times with 400 μl per well per cycle of wash buffer. Diluted standards, controls and samples are added to plates at 100 μl per well, in duplicate. The plates are incubated at room temperature with shaking for 2 hours +10 minutes. The plates arc washed four times with 400 μl per well per cycle of wash buffer. HRP conjugates diluted in conjugate buffer (PBS/0.5% BSA/0.05% polysorbate 20/0.05% ProClin 300, pH 7.4±0.1) are added at 100 μl per well. […] The plates are read using a 450 nm read wavelength and a 620 or 630 nm reference wavelength. […]

[3] = target: T1, anti-Complex I antibody (anti-HCMV …); experiment: anti-CI clinical PK ELISA; coat 4.25B10.15 0.5 ug/mL; 8G8 0.25 ug/mL; against unspiked human serum
Procedure: as §1

[4] = target: T1, anti-Complex I antibody (anti-HCMV …); experiment: anti-CI clinical PK ELISA; coat 4.25B10.15 0.5 ug/mL; 8G8 1 ug/mL; against unspiked human serum
Procedure: as §1

[5] = target: T1, anti-Complex I antibody (anti-HCMV …); experiment: anti-CI clinical PK ELISA; coat 4.25B10.15 1 ug/mL; 8G8 0.25 ug/mL; against unspiked human serum
Procedure: as §1

[6] = target: T1, anti-Complex I antibody (anti-HCMV …); experiment: anti-CI clinical PK ELISA; coat 4.25B10.15 0.5 ug/mL; 8G8 0.5 ug/mL; against unspiked human serum
Procedure: as §1

[7] = target: T1, anti-Complex I antibody (anti-HCMV …); experiment: anti-CI clinical PK ELISA; coat 4.25B10.15 1 ug/mL; 8G8 8 ug/mL; against unspiked human serum
Procedure: as §1

[8] = target: T1, anti-Complex I antibody (anti-HCMV …); experiment: anti-CI clinical PK ELISA; coat 4.25B10.15 0.75 ug/mL; 8G8 16 ug/mL; against unspiked human serum
Procedure: as §2

[9] = target: T1, anti-Complex I antibody (anti-HCMV …); experiment: anti-CI clinical PK ELISA; coat 4.25B10.15 0.5 ug/mL; 8G8 16 ug/mL; against unspiked human serum
Procedure: as §1

[10] = target: T1, anti-Complex I antibody (anti-HCMV …); experiment: anti-CI clinical PK ELISA; coat 4.25B10.15 0.75 ug/mL; 8G8 0.25 ug/mL; against unspiked human serum
Procedure: as §2

[11] = target: T1, anti-Complex I antibody (anti-HCMV …); experiment: anti-CI clinical PK ELISA; coat 4.25B10.15 0.5 ug/mL; 8G8 8 ug/mL; against unspiked human serum
Procedure: as §1

[12] = target: T1, anti-Complex I antibody (anti-HCMV …); experiment: anti-CI clinical PK ELISA; coat 4.25B10.15 1 ug/mL; 8G8 4 ug/mL; against unspiked human serum
Procedure: as §1

[13] = target: T1, anti-Complex I antibody (anti-HCMV …); experiment: anti-CI clinical PK ELISA; coat 4.25B10.15 0.75 ug/mL; 8G8 1 ug/mL; against unspiked human serum
Procedure: as §2

[14] = target: T1, anti-Complex I antibody (anti-HCMV …); experiment: anti-CI clinical PK ELISA; coat 4.25B10.15 0.5 ug/mL; 8G8 0.125 ug/mL; against unspiked human serum
Procedure: as §1

[15] = target: T1, anti-Complex I antibody (anti-HCMV …); experiment: anti-CI clinical PK ELISA; coat 4.25B10.15 0.75 ug/mL; 8G8 4 ug/mL; against unspiked human serum
Procedure: as §2

[16] = target: T1, anti-Complex I antibody (anti-HCMV …); experiment: anti-CI clinical PK ELISA standard curve; anti-CI 0.156 ug/mL in 0.5% human serum pool; against background
Procedure: as §2

[17] = target: T1, anti-Complex I antibody (anti-HCMV …); experiment: anti-CI clinical PK ELISA; coat 4.25B10.15 0.75 ug/mL; 8G8 0.5 ug/mL; against unspiked human serum
Procedure: as §2

[18] = target: T1, anti-Complex I antibody (anti-HCMV …); experiment: anti-CI clinical PK ELISA standard curve; anti-CI 2.5 ug/mL in 0.5% human serum pool; against background
Procedure: as §2

[19] = target: T1, anti-Complex I antibody (anti-HCMV …); experiment: anti-CI clinical PK ELISA; coat 4.25B10.15 1 ug/mL; 8G8 1 ug/mL; against unspiked human serum
Procedure: as §1

[20] = target: T1, anti-Complex I antibody (anti-HCMV …); experiment: anti-CI clinical PK ELISA standard curve; anti-CI 1.25 ug/mL in 0.5% human serum pool; against background
Procedure: as §2

[21] = target: T1, anti-Complex I antibody (anti-HCMV …); experiment: anti-CI clinical PK ELISA standard curve; anti-CI 0.625 ug/mL in 0.5% human serum pool; against background
Procedure: as §2

[22] = target: T1, anti-Complex I antibody (anti-HCMV …); experiment: anti-CI clinical PK ELISA standard curve; anti-CI 0.313 ug/mL in 0.5% human serum pool; against background
Procedure: as §2

[23] = target: T1, anti-Complex I antibody (anti-HCMV …); experiment: anti-CI clinical PK ELISA; coat 4.25B10.15 1 ug/mL; 8G8 16 ug/mL; against unspiked human serum
Procedure: as §1

[24] = target: T1, anti-Complex I antibody (anti-HCMV …); experiment: Biacore
[25] = target: T1, anti-Complex I antibody (anti-HCMV …); experiment: anti-CI clinical PK ELISA standard curve; anti-CI 20 ug/mL in 0.5% human serum pool; against background
Procedure: as §2

[26] = target: T1, anti-Complex I antibody (anti-HCMV …); experiment: anti-CI clinical PK ELISA; coat 4.25B10.15 0.5 ug/mL; 8G8 4 ug/mL; against unspiked human serum
Procedure: as §1

[27] = target: T1, anti-Complex I antibody (anti-HCMV …); experiment: anti-CI clinical PK ELISA standard curve; anti-CI 10 ug/mL in 0.5% human serum pool; against background
Procedure: as §2

[28] = target: T1, anti-Complex I antibody (anti-HCMV …); experiment: anti-CI clinical PK ELISA; coat 4.25B10.15 0.75 ug/mL; 8G8 8 ug/mL; against unspiked human serum
Procedure: as §2

[29] = target: T1, anti-Complex I antibody (anti-HCMV …); experiment: anti-CI clinical PK ELISA; coat 4.25B10.15 1 ug/mL; 8G8 0.5 ug/mL; against unspiked human serum
Procedure: as §1

[30] = target: T1, anti-Complex I antibody (anti-HCMV …); experiment: anti-CI clinical PK ELISA standard curve; anti-CI 5 ug/mL in 0.5% human serum pool; against background
Procedure: as §2

[31] = target: T2, anti-gH antibody (anti-HCMV antibody); experiment: preliminary anti-HCMV human PK ELISA, anti-ID coat 1 ug/mL, anti-gH in 1% NHS, HRP-sheep anti-huIgG
T2 construct: Anti-HCMV monoclonal antibody with a human IgG Fc (detected with anti-human IgG Fc)
T2 sequence (VH, as listed by the source, chain 1 of 2): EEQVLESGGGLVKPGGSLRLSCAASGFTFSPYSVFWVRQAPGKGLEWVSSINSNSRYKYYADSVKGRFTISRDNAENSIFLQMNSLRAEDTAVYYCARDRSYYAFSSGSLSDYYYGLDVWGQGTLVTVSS
T2 sequence (VL, as listed by the source, chain 2 of 2): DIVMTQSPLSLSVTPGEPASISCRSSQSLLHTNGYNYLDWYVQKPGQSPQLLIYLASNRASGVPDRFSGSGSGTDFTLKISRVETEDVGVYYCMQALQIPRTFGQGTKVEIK
Procedure: The assay was carried out as follows: microtiter ELISA plates were coated with anti-idiotypic monoclonal antibodies at 1 μg/mL in PBS overnight. Anti-CI and anti-gH were diluted in 1% NHS and added to the wells, being subsequently detected with 50 ng/mL (in-well concentration) of HRP-Sheep anti-huIgG.

[32] = target: T2, anti-gH antibody (anti-HCMV antibody); experiment: Biacore

T1 sequence (VH, as listed by the source, chain 1 of 2): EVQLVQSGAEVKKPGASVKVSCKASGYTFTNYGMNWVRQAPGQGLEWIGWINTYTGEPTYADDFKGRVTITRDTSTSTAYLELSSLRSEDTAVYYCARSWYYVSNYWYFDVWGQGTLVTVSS
T1 sequence (VL, as listed by the source, chain 2 of 2): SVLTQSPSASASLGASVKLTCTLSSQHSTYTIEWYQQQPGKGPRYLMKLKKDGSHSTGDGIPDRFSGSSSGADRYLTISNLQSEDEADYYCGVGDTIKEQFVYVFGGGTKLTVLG

B1: murine mAb 4.25B10.15 (antibody, IgG1, V domains shown)
VH: QVQLQQSGAELVRPGTSVKVSCKASGYAFTNYLIEWVKQRPGQGLEWIGVINPGSGGTNYNEKFEAKATLTADKSSSTAYMQLSSLTSDDSAVYFCARHGSSYWYFDVWGAGTTVTVSS
VL: DIVMTQSPATLSVTPGDRVSLSCRASQSISDYLHWYQQKSHESPRLLIKYASQSISGIPSRFSGSGSGSDFTLSINSVEPEDVGVYYCQNGHSFPYTFGGGTKLEIK
notes: also called anti-CI idiotypic antibody; anti-CI anti-ID mAb
- Signal/bkgd ratio [1]: 1.4 ratio
- Signal/bkgd ratio [2]: 1.5 ratio
- Signal/bkgd ratio [3]: 1.8 ratio
- Signal/bkgd ratio [4]: 4.3 ratio
- Signal/bkgd ratio [5]: 1.9 ratio
- Signal/bkgd ratio [6]: 2.7 ratio
- Signal/bkgd ratio [7]: 13 ratio
- Signal/bkgd ratio [8]: 19.1 ratio
- Signal/bkgd ratio [9]: 14.7 ratio
- Signal/bkgd ratio [10]: 2.1 ratio
- Signal/bkgd ratio [11]: 12.3 ratio
- Signal/bkgd ratio [12]: 10 ratio
- Signal/bkgd ratio [13]: 5.3 ratio
- Signal/bkgd ratio [14]: 1.4 ratio
- Signal/bkgd ratio [15]: 13.3 ratio
- S/B ratio [16]: 1.5 ratio
- Signal/bkgd ratio [17]: 3.2 ratio
- S/B ratio [18]: 8.4 ratio
- Signal/bkgd ratio [19]: 4.4 ratio
- S/B ratio [20]: 4.9 ratio
- S/B ratio [21]: 3 ratio
- S/B ratio [22]: 2 ratio
- Signal/bkgd ratio [23]: 13.8 ratio
- Kd [24]: 4.7 nM
- S/B ratio [25]: 22.3 ratio
- Signal/bkgd ratio [26]: 10.4 ratio
- S/B ratio [27]: 19.6 ratio
- Signal/bkgd ratio [28]: 16.5 ratio
- Signal/bkgd ratio [29]: 2.7 ratio
- S/B ratio [30]: 13.6 ratio

B2: murine mAb 1.9E1.1 (antibody, IgG1, V domains shown)
VH: QVQLQQSGAELVMPGASVKMSCKASGYTFTDYWMYWVNQRPGQGLEWIGAIDTSDSYTTYNQNFKGKATLTVDESSSTAYMQLNSLTSEDSAVYYCARSGFPLFYYPMDYWGQGTSVTVSS
VL: QAVVTQESALTTSPGETVTLTCRSSTGAVTTSNYANWVQEKPDHLFTGLIGGTVNRAPGVPARFSGSLIGDKAALTITGAQTEDEAVYFCALWYSNHLVFGGGTKLTVL
notes: Used biotin-conjugated in the clinical PK ELISA and the LC-MS/MS capture; also called anti-gH idiotypic antibody; anti-gH anti-ID mAb
- fold of OD in the presence of anti-gH over OD in the absence of anti-gH [31]: > 2 fold
- Kd [32]: 0.1 nM
